Experimental data published in paper PMC12102759 (2025).

B1: MXI1 peptide 6-21 (Max-interacting protein 1), 16-mer library wild type / SIN3A PAH2 (SIN3A PAH domain, residues 295-383) (parent complex)
chain 1: MINVQRLLEAAEFLER
chain 2: SLQNNQPVEFNHAINYVNKIKNRFQGQPDIYKAFLEILHTYQKEQRNAKEAGGNYTPALTEQEVYAQVARLFKNQEDLLSEFGQFLPDA

Variants of: B1
Assay: proteomic peptide phage display deep mutational scan (ProP-PD DMS): M13 P8 16-mer library selected against immobilised GST-tagged bait for four days (rounds), NGS of the eluted pools per day and pseudo-replica; bait immobilised on MaxiSorp plates (10 µg), library pre-cleared on GST, 2 h binding at 4 °C, five washes; one round per day, days 1-4; value from days 2 and 3

Question: Which screen value does the source give for chain 1 E15M here?
Answer: 8.82e-05 average fractional NGS count over selection days 2 and 3 (reads of this peptide / all reads for the bait, averaged over …

Question: chain 1 E15V was tested. Which screen value did it give?
Answer: 0.0659 average fractional NGS count over selection days 2 and 3 (reads of this peptide / all reads for the bait, averaged over …

Question: With chain 1 E15S as the variant, how does the screen value read?
Answer: 0.0548 average fractional NGS count over selection days 2 and 3 (reads of this peptide / all reads for the bait, averaged over …

Question: Which screen value does the source give for chain 1 E15I here?
Answer: 0.0148 average fractional NGS count over selection days 2 and 3 (reads of this peptide / all reads for the bait, averaged over …

Question: With chain 1 E15L as the variant, how does the screen value read?
Answer: 0.0492 average fractional NGS count over selection days 2 and 3 (reads of this peptide / all reads for the bait, averaged over …

Question: Which screen value does the source give for chain 1 E15W here?
Answer: 0.00827 average fractional NGS count over selection days 2 and 3 (reads of this peptide / all reads for the bait, averaged over …

Question: How did the screen value turn out when chain 1 E15K was run?
Answer: 0.000258 average fractional NGS count over selection days 2 and 3 (reads of this peptide / all reads for the bait, averaged over …

Question: chain 1 E15R was tested. Which screen value did it give?
Answer: 0.000127 average fractional NGS count over selection days 2 and 3 (reads of this peptide / all reads for the bait, averaged over …

Question: chain 1 E15P was tested. Which screen value did it give?
Answer: 0.000251 average fractional NGS count over selection days 2 and 3 (reads of this peptide / all reads for the bait, averaged over …

Question: How did the screen value turn out when chain 1 M1F was run?
Answer: 0.000314 average fractional NGS count over selection days 2 and 3 (reads of this peptide / all reads for the bait, averaged over …

Question: For chain 1 M1D, which screen value is on record?
Answer: 9.92e-05 average fractional NGS count over selection days 2 and 3 (reads of this peptide / all reads for the bait, averaged over …

Question: For chain 1 M1I, which screen value is on record?
Answer: 0.000114 average fractional NGS count over selection days 2 and 3 (reads of this peptide / all reads for the bait, averaged over …

Question: For chain 1 M1W, which screen value is on record?
Answer: 0.00153 average fractional NGS count over selection days 2 and 3 (reads of this peptide / all reads for the bait, averaged over …

Question: Which screen value does the source give for chain 1 M1P here?
Answer: 0.000146 average fractional NGS count over selection days 2 and 3 (reads of this peptide / all reads for the bait, averaged over …

Question: chain 1 M1Y was tested. Which screen value did it give?
Answer: 0.000304 average fractional NGS count over selection days 2 and 3 (reads of this peptide / all reads for the bait, averaged over …

Question: Which screen value does the source give for chain 1 M1K here?
Answer: 0.000747 average fractional NGS count over selection days 2 and 3 (reads of this peptide / all reads for the bait, averaged over …

Question: chain 1 F13Y was tested. Which screen value did it give?
Answer: 0.00195 average fractional NGS count over selection days 2 and 3 (reads of this peptide / all reads for the bait, averaged over …

Question: How did the screen value turn out when chain 1 F13D was run?
Answer: 0.00238 average fractional NGS count over selection days 2 and 3 (reads of this peptide / all reads for the bait, averaged over …

Question: chain 1 F13W was tested. Which screen value did it give?
Answer: 0.00114 average fractional NGS count over selection days 2 and 3 (reads of this peptide / all reads for the bait, averaged over …

Question: For chain 1 F13N, which screen value is on record?
Answer: 0.00134 average fractional NGS count over selection days 2 and 3 (reads of this peptide / all reads for the bait, averaged over …

Question: chain 1 F13Q was tested. Which screen value did it give?
Answer: 0.00155 average fractional NGS count over selection days 2 and 3 (reads of this peptide / all reads for the bait, averaged over …

Question: How did the screen value turn out when chain 1 F13A was run?
Answer: 0.000255 average fractional NGS count over selection days 2 and 3 (reads of this peptide / all reads for the bait, averaged over …

Question: How did the screen value turn out when chain 1 F13T was run?
Answer: 0.00119 average fractional NGS count over selection days 2 and 3 (reads of this peptide / all reads for the bait, averaged over …

Question: For chain 1 F13S, which screen value is on record?
Answer: 0.000565 average fractional NGS count over selection days 2 and 3 (reads of this peptide / all reads for the bait, averaged over …

Question: Which screen value does the source give for chain 1 F13E here?
Answer: 0.000282 average fractional NGS count over selection days 2 and 3 (reads of this peptide / all reads for the bait, averaged over …

Question: For chain 1 F13R, which screen value is on record?
Answer: 0.00192 average fractional NGS count over selection days 2 and 3 (reads of this peptide / all reads for the bait, averaged over …

Question: chain 1 F13K was tested. Which screen value did it give?
Answer: 0.00119 average fractional NGS count over selection days 2 and 3 (reads of this peptide / all reads for the bait, averaged over …

Question: chain 1 F13L was tested. Which screen value did it give?
Answer: 0.00028 average fractional NGS count over selection days 2 and 3 (reads of this peptide / all reads for the bait, averaged over …

Question: With chain 1 F13G as the variant, how does the screen value read?
Answer: 0.00169 average fractional NGS count over selection days 2 and 3 (reads of this peptide / all reads for the bait, averaged over …

Question: chain 1 F13V was tested. Which screen value did it give?
Answer: 0.000201 average fractional NGS count over selection days 2 and 3 (reads of this peptide / all reads for the bait, averaged over …

Question: chain 1 R6A was tested. Which screen value did it give?
Answer: 0.00198 average fractional NGS count over selection days 2 and 3 (reads of this peptide / all reads for the bait, averaged over …

Question: How did the screen value turn out when chain 1 R6G was run?
Answer: 0.000834 average fractional NGS count over selection days 2 and 3 (reads of this peptide / all reads for the bait, averaged over …

Question: For chain 1 R6Y, which screen value is on record?
Answer: 0.00232 average fractional NGS count over selection days 2 and 3 (reads of this peptide / all reads for the bait, averaged over …

Question: chain 1 R6W was tested. Which screen value did it give?
Answer: 0.0159 average fractional NGS count over selection days 2 and 3 (reads of this peptide / all reads for the bait, averaged over …

Question: How did the screen value turn out when chain 1 R6V was run?
Answer: 0.000218 average fractional NGS count over selection days 2 and 3 (reads of this peptide / all reads for the bait, averaged over …

Question: For chain 1 N3G, which screen value is on record?
Answer: 0.00333 average fractional NGS count over selection days 2 and 3 (reads of this peptide / all reads for the bait, averaged over …

Question: chain 1 N3L was tested. Which screen value did it give?
Answer: 0.0228 average fractional NGS count over selection days 2 and 3 (reads of this peptide / all reads for the bait, averaged over …

Question: For chain 1 N3W, which screen value is on record?
Answer: 0.000465 average fractional NGS count over selection days 2 and 3 (reads of this peptide / all reads for the bait, averaged over …

Question: For chain 1 N3H, which screen value is on record?
Answer: 0.000207 average fractional NGS count over selection days 2 and 3 (reads of this peptide / all reads for the bait, averaged over …

Question: chain 1 N3V was tested. Which screen value did it give?
Answer: 0.000212 average fractional NGS count over selection days 2 and 3 (reads of this peptide / all reads for the bait, averaged over …

Question: Which screen value does the source give for chain 1 N3K here?
Answer: 0.000249 average fractional NGS count over selection days 2 and 3 (reads of this peptide / all reads for the bait, averaged over …

Question: Which screen value does the source give for chain 1 N3E here?
Answer: 0.000543 average fractional NGS count over selection days 2 and 3 (reads of this peptide / all reads for the bait, averaged over …

Question: How did the screen value turn out when chain 1 N3M was run?
Answer: 0.0121 average fractional NGS count over selection days 2 and 3 (reads of this peptide / all reads for the bait, averaged over …

Question: For chain 1 N3T, which screen value is on record?
Answer: 0.00466 average fractional NGS count over selection days 2 and 3 (reads of this peptide / all reads for the bait, averaged over …

Question: chain 1 N3P was tested. Which screen value did it give?
Answer: 0.00138 average fractional NGS count over selection days 2 and 3 (reads of this peptide / all reads for the bait, averaged over …

Question: With chain 1 V4W as the variant, how does the screen value read?
Answer: 0.00027 average fractional NGS count over selection days 2 and 3 (reads of this peptide / all reads for the bait, averaged over …

Question: With chain 1 V4T as the variant, how does the screen value read?
Answer: 0.00342 average fractional NGS count over selection days 2 and 3 (reads of this peptide / all reads for the bait, averaged over …

Question: chain 1 V4H was tested. Which screen value did it give?
Answer: 0.000116 average fractional NGS count over selection days 2 and 3 (reads of this peptide / all reads for the bait, averaged over …

Question: chain 1 V4A was tested. Which screen value did it give?
Answer: 0.000356 average fractional NGS count over selection days 2 and 3 (reads of this peptide / all reads for the bait, averaged over …

Question: Which screen value does the source give for chain 1 V4N here?
Answer: 0.000273 average fractional NGS count over selection days 2 and 3 (reads of this peptide / all reads for the bait, averaged over …

Question: For chain 1 V4L, which screen value is on record?
Answer: 0.000307 average fractional NGS count over selection days 2 and 3 (reads of this peptide / all reads for the bait, averaged over …

Question: Which screen value does the source give for chain 1 V4I here?
Answer: 0.000288 average fractional NGS count over selection days 2 and 3 (reads of this peptide / all reads for the bait, averaged over …

Question: For chain 1 V4Y, which screen value is on record?
Answer: 0.000247 average fractional NGS count over selection days 2 and 3 (reads of this peptide / all reads for the bait, averaged over …

Question: With chain 1 I2E as the variant, how does the screen value read?
Answer: 0.00021 average fractional NGS count over selection days 2 and 3 (reads of this peptide / all reads for the bait, averaged over …

Question: chain 1 I2F was tested. Which screen value did it give?
Answer: 0.000676 average fractional NGS count over selection days 2 and 3 (reads of this peptide / all reads for the bait, averaged over …

Question: With chain 1 I2Y as the variant, how does the screen value read?
Answer: 0.00134 average fractional NGS count over selection days 2 and 3 (reads of this peptide / all reads for the bait, averaged over …

Question: With chain 1 I2W as the variant, how does the screen value read?
Answer: 0.00792 average fractional NGS count over selection days 2 and 3 (reads of this peptide / all reads for the bait, averaged over …

Question: How did the screen value turn out when chain 1 I2L was run?
Answer: 0.000364 average fractional NGS count over selection days 2 and 3 (reads of this peptide / all reads for the bait, averaged over …

Question: chain 1 I2H was tested. Which screen value did it give?
Answer: 0.000551 average fractional NGS count over selection days 2 and 3 (reads of this peptide / all reads for the bait, averaged over …

Question: chain 1 I2A was tested. Which screen value did it give?
Answer: 0.00266 average fractional NGS count over selection days 2 and 3 (reads of this peptide / all reads for the bait, averaged over …

Question: Which screen value does the source give for chain 1 I2S here?
Answer: 0.000713 average fractional NGS count over selection days 2 and 3 (reads of this peptide / all reads for the bait, averaged over …

Question: For chain 1 I2Q, which screen value is on record?
Answer: 0.000479 average fractional NGS count over selection days 2 and 3 (reads of this peptide / all reads for the bait, averaged over …

Question: How did the screen value turn out when chain 1 I2P was run?
Answer: 0.000427 average fractional NGS count over selection days 2 and 3 (reads of this peptide / all reads for the bait, averaged over …

Question: With chain 1 A10V as the variant, how does the screen value read?
Answer: 0.000572 average fractional NGS count over selection days 2 and 3 (reads of this peptide / all reads for the bait, averaged over …

Question: For chain 1 A10G, which screen value is on record?
Answer: 0.00122 average fractional NGS count over selection days 2 and 3 (reads of this peptide / all reads for the bait, averaged over …

Question: Which screen value does the source give for chain 1 A10W here?
Answer: 0.000448 average fractional NGS count over selection days 2 and 3 (reads of this peptide / all reads for the bait, averaged over …

Question: With chain 1 A10Y as the variant, how does the screen value read?
Answer: 0.000126 average fractional NGS count over selection days 2 and 3 (reads of this peptide / all reads for the bait, averaged over …

Question: For chain 1 E9F, which screen value is on record?
Answer: 0.000875 average fractional NGS count over selection days 2 and 3 (reads of this peptide / all reads for the bait, averaged over …

Question: Which screen value does the source give for chain 1 E9H here?
Answer: 0.000122 average fractional NGS count over selection days 2 and 3 (reads of this peptide / all reads for the bait, averaged over …

Question: How did the screen value turn out when chain 1 E9M was run?
Answer: 0.000348 average fractional NGS count over selection days 2 and 3 (reads of this peptide / all reads for the bait, averaged over …

Question: How did the screen value turn out when chain 1 E9V was run?
Answer: 0.000671 average fractional NGS count over selection days 2 and 3 (reads of this peptide / all reads for the bait, averaged over …

Question: Which screen value does the source give for chain 1 E9D here?
Answer: 0.000993 average fractional NGS count over selection days 2 and 3 (reads of this peptide / all reads for the bait, averaged over …

Question: chain 1 E9G was tested. Which screen value did it give?
Answer: 0.000184 average fractional NGS count over selection days 2 and 3 (reads of this peptide / all reads for the bait, averaged over …

Question: Which screen value does the source give for chain 1 E9I here?
Answer: 0.000125 average fractional NGS count over selection days 2 and 3 (reads of this peptide / all reads for the bait, averaged over …

Question: How did the screen value turn out when chain 1 E9S was run?
Answer: 0.0016 average fractional NGS count over selection days 2 and 3 (reads of this peptide / all reads for the bait, averaged over …
